Data taken from US20220133849A1.

Biological target: Maxi-K channel of rat bladder detrusor smooth muscle (endogenous) (rat) (UniProt Q62976)
Assay: cell-based or functional assay

UniProt Q62976, sequence (Q62976 whole entry): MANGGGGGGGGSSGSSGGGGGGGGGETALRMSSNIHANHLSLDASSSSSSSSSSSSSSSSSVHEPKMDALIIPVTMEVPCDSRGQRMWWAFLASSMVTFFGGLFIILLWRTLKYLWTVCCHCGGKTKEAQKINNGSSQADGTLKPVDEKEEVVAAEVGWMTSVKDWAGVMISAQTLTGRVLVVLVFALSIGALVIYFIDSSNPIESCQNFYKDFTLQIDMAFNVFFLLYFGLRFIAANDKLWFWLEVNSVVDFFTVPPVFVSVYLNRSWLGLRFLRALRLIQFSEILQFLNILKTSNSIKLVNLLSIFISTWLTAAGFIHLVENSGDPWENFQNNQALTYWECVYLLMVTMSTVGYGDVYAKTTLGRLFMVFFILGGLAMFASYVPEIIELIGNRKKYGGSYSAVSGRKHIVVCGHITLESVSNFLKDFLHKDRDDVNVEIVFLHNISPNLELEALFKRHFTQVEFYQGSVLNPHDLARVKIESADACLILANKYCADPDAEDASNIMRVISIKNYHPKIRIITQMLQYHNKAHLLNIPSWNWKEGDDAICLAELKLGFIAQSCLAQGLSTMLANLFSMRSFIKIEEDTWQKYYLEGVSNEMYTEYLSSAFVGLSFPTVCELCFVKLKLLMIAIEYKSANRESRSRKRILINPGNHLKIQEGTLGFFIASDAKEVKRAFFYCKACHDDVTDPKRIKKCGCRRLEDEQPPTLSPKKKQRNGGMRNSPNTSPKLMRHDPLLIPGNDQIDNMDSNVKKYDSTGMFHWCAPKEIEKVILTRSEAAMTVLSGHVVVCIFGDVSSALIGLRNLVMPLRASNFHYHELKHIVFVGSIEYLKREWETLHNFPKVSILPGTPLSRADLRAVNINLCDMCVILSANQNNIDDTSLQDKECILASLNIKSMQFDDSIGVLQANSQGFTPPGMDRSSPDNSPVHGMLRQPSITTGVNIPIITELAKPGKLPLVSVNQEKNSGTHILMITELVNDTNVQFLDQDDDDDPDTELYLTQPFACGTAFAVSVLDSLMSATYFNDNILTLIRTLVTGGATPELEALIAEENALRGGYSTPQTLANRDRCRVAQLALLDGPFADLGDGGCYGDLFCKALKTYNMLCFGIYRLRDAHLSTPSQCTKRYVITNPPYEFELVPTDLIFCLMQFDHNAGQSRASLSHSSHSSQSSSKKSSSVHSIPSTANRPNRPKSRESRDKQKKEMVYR

## iberiotoxin (from UniProt P24663 1-37) (peptide)
  outward current in response to applied voltage, single whole-cell patch clamp of isolated rat detrusor cells, 300 nM IBTX: > 50%
